Legend:
[1] = molecular target: T1, Arabidopsis thaliana DECREASE IN DNA …ON 1 (DDM1), full length (Arabidopsis thaliana, UniProt Q9XFH4 1-764); assay: cross-linking; nucleosomes (0.2 µM) with AtDDM1 (0.4 µM), 60 mM NaCl, 1 mM MgCl2, 1 mM ADP, pH 7.5, 25 °C; 1.6 mM DSS-H12/D12 (lysine-lysine), LC-MS/MS, xQuest/xProphet; conditions: both partners purified
T1 construct: DDM1, Snf2-type chromatin remodeling factor, Arabidopsis thaliana, full length; His6-SUMO removed with HRV 3C protease; also called AtDDM1; source: E. coli BL21(DE3) Codon(+) RIL, purified (Ni-NTA, RESOURCE Q flow-through, RESOURCE S, Superdex 200); not shown: His6, N-terminal, cleaved; SUMO, N-terminal, cleaved
T1 sequence (Q9XFH4 whole entry): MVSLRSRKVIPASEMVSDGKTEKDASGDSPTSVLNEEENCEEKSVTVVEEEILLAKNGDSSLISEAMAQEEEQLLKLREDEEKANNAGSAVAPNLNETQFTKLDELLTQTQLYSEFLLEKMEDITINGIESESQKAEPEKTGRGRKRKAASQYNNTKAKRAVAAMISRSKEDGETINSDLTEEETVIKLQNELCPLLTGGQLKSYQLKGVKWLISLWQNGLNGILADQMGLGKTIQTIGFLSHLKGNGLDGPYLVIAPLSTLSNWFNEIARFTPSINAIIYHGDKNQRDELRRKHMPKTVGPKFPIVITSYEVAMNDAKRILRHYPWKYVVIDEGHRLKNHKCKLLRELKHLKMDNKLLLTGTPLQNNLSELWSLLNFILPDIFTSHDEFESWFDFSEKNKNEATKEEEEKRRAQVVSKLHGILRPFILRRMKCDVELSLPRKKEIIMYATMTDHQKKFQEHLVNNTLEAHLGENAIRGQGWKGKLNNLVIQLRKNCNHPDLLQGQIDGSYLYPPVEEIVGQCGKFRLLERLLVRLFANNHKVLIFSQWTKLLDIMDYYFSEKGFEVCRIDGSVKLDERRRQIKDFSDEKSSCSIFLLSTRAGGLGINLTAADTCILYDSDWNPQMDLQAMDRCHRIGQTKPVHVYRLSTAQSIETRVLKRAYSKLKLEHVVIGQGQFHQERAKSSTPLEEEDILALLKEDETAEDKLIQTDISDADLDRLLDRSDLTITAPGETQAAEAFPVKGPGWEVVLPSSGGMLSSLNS

[2] = molecular target: T2, Arabidopsis thaliana histone H3.1 (Arabidopsis thaliana, UniProt P59226 1-136); assay: as above; conditions: both partners purified
T2 construct: His6 tag removed with thrombin (pET-15b); also called AtH3.1; source: E. coli BL21(DE3) Codon(+) RIL, purified (Ni-NTA and SP cation exchange, denaturing); in reconstituted nucleosomes; not shown: His6, N-terminal, cleaved

B1: Arabidopsis thaliana histone H2A.W.6 (natural protein)
chain: MESTGKVKKAFGGRKPPGAPKTKSVSKSMKAGLQFPVGRITRFLKKGRYAQRLGGGAPVYMAAVLEYLAAEVLELAGNAARDNKKSRIIPRHLLLAIRNDEELGKLLSGVTIAHGGVLPNINSVLLPKKSATKPAEEKATKSPVKSPKKA
notes: His6 tag removed with thrombin (pET-15b); also called AtH2A.W; AtH2A.W.6; source: E. coli BL21(DE3) Codon(+) RIL, purified (Ni-NTA and SP cation exchange, denaturing); in reconstituted nucleosomes; not shown: His6, N-terminal, cleaved
B1: binds [1]; binds [2].

Source: article PMC11239853, “Molecular and structural basis of the chromatin remodeling activity by Arabidopsis DDM1” (Nature Communications, 2024)
